In the Immune Epitope Database (IEDB):

Key:
Test in all cases: IEDB peptide-MHC binding, purified MHC/competitive/fluorescence; ≥ and ≤ were set here for values at or beyond the usual limits of such assays
Details in all cases: source organism: Plasmodium falciparum
[1] = target: HLA-A*01:01
[2] = target: HLA-A*03:01
[3] = target: HLA-A*02:01
[4] = target: HLA-A*24:02
[5] = target: HLA-B*07:02
[6] = target: HLA-B*44:02

For NNEDYKNVDY, the IC50 [1] was 7.99 µM.
Sequence CVCTYNYYKK has an IC50 [2] of 14.4 µM.
Sequence NIFHHLIYV has an IC50 [3] of 2.29 µM.
For GYNWGNYNTE, the IC50 [4] was ≥ 100 µM.
Sequence LTPVATGNQY has an IC50 [1] of 2.56 µM.
MNRTFKKMM was tested, and the IC50 [5] was ≥ 100 µM.
With FIPSHNSFIK the IC50 [2] was ≥ 100 µM.
With KLPLESSTI the IC50 [4] was 0.214 µM and the IC50 [3] was 2.12 µM.
For KVKSKCNDIK, the IC50 [2] was 39.3 µM.
In the case of FNRIEYHTKI, the IC50 [5] is reported as ≥ 100 µM.
With EENYRCTQDI the IC50 [6] was ≥ 674 µM.
With NVNFLQYHFK the IC50 [2] was ≥ 100 µM.
In the case of DMSNEYSLFI, the IC50 [3] is reported as ≥ 100 µM.
KMYSEFKSI was tested, and the IC50 [3] was 1.02 µM.
In the case of FISDDKDSLK, the IC50 [2] is reported as ≥ 697 µM.
Sequence SYNSIYHKS has an IC50 [4] of 57.7 µM.
NKNDDSYRY showed an IC50 [1] of 6.68 µM.
In the case of KSAFLPTGAF, the IC50 [5] is reported as ≥ 100 µM.
In the case of IKLNIWRTF, the IC50 [4] is reported as 1.42 µM.
For IPHYTFLDYY, the IC50 [5] was ≥ 100 µM.
EELQITQWI was tested, and the IC50 [6] was 19.6 µM.
With KPHECVCNKQ the IC50 [5] was ≥ 100 µM.
With HPYDINNKND the IC50 [5] was ≥ 100 µM.
In the case of SLFITSDHL, the IC50 [3] is reported as 7.12 µM.
Work on HLNNIFHHL yielded an IC50 [3] of 0.225 µM.
NFGRGQNYW gave an IC50 [4] of 0.229 µM.
With LEFVCSNRDF the IC50 [6] was 7.46 µM.
For FITSDHLRQM, the IC50 [5] was ≥ 100 µM.
YLNKYVYTI showed an IC50 [4] of 0.135 µM and an IC50 [3] of 0.342 µM.
For EYKDEYADI, the IC50 [4] was 2.1 µM.
NENNENNFL was tested, and the IC50 [6] was ≥ 100 µM.
With KRASHTTPV the IC50 [3] was ≥ 100 µM and the IC50 [5] was ≥ 100 µM.
For ILNNSKFNK, the IC50 [2] was 0.42 µM.
EYPLHQEHTY gave an IC50 [4] of 0.999 µM.
KEKHLNNIF was tested, and the IC50 [6] was ≥ 100 µM.
KLGVQYFFL gave an IC50 [3] of 0.805 µM.
Work on RPYISKNDL yielded an IC50 [5] of 0.244 µM.
For GSYIYIDTIK, the IC50 [2] was ≥ 70.8 µM.
KINETYDKV gave an IC50 [3] of 10.1 µM.
For SVLNGNDNTI, the IC50 [3] was ≥ 640 µM.
NLFSSIEIV gave an IC50 [3] of 1.55 µM.
In the case of LNDEYIVSY, the IC50 [1] is reported as 28.1 µM.
VLNGNDNTI was tested, and the IC50 [3] was 7.31 µM.
IYKRELYNI showed an IC50 [4] of 0.0868 µM.
For STCYGNRFNY, the IC50 [1] was 54 µM and the IC50 [2] was ≥ 100 µM.
RTFQKDELLK showed an IC50 [2] of 24.2 µM.
For TIIYIHLFIL, the IC50 [5] was 13.7 µM.
FVLENGVCI was tested, and the IC50 [3] was 4.17 µM and the IC50 [5] was ≥ 284 µM.
SLIKQNKYV gave an IC50 [3] of 29.9 µM.
For NEKNDVKNN, the IC50 [6] was ≥ 100 µM.
In the case of MPKAVIGSSP, the IC50 [5] is reported as ≥ 293 µM.
CLINNSSYI was tested, and the IC50 [3] was 3.82 µM.
For SMIKSAFLPT, the IC50 [3] was 12.5 µM.
YENKSLTHYL was tested, and the IC50 [6] was ≥ 112 µM.
For NPQQSVGENG, the IC50 [5] was ≥ 100 µM.
With NEIDKLTFSL the IC50 [6] was ≥ 332 µM.
AVLATILMV gave an IC50 [3] of 23.6 µM.
Work on QYLKDGGFAF yielded an IC50 [4] of 0.0419 µM.
Sequence KLNIWRTFQK has an IC50 [2] of 2.5 µM.
RPNDCESVL showed an IC50 [5] of 0.377 µM.
IPDNDKNSNY gave an IC50 [1] of 14.7 µM.
Sequence PYISKYGNKL has an IC50 [4] of 0.179 µM.
Sequence NEDYKNVDY has an IC50 [1] of 8.92 µM.
With IYIHLFILN the IC50 [4] was ≥ 142 µM.
ILDMSNEYSL showed an IC50 [3] of 6.87 µM.
YLNTNVNDGL showed an IC50 [3] of 2.83 µM.
For KEIDNDKENI, the IC50 [6] was ≥ 100 µM.
AYLNKYVYTI showed an IC50 [4] of 0.127 µM.
With RTFKKMMDEY the IC50 [1] was ≥ 100 µM and the IC50 [2] was ≥ 100 µM.
In the case of YIDTIKFIHK, the IC50 [1] is reported as 1.51 µM.
RQMLYNTFYS was tested, and the IC50 [3] was ≥ 319 µM.
In the case of LSSYVSLPLK, the IC50 [2] is reported as 0.654 µM.
SIYHKSSTY was tested, and the IC50 [1] was ≥ 100 µM and the IC50 [2] was 5.93 µM.
Work on IEIVERSNY yielded an IC50 [6] of 8.03 µM.
With DEYIHKLIL the IC50 [6] was ≥ 100 µM.
In the case of CPRKNLQNA, the IC50 [5] is reported as 0.484 µM.
Work on STCRFFVCK yielded an IC50 [2] of 5.9 µM.
With HTKIINDKTK the IC50 [2] was ≥ 73 µM.
For KDLSDMTNI, the IC50 [6] was ≥ 100 µM.
For NYMGNPWTE, the IC50 [4] was 37.9 µM.
With FISDDKDSL the IC50 [3] was ≥ 336 µM.
For HREHPKEYEY, the IC50 [1] was 11.1 µM.
KMMDEYNTKK was tested, and the IC50 [3] was ≥ 511 µM and the IC50 [2] was 8.48 µM.
AYVSCYRVSF gave an IC50 [4] of 0.0569 µM.
IPFHKKFISF showed an IC50 [5] of 21.9 µM.
ENDYAYLNKY was tested, and the IC50 [1] was 42.2 µM.
HLSYNSIYHK gave an IC50 [2] of 44.2 µM.
With KEKFYKNNLY the IC50 [6] was ≥ 919 µM.
NLFEQLSCY was tested, and the IC50 [1] was ≥ 100 µM.
For SPNDNINVT, the IC50 [5] was 36.1 µM.
With KEMKHIFNRI the IC50 [6] was 39.2 µM.
For TPGPLDNTSE, the IC50 [5] was ≥ 100 µM.
DLMNRTFKK was tested, and the IC50 [2] was ≥ 100 µM.
In the case of EEKDDIKNG, the IC50 [6] is reported as ≥ 100 µM.
With GYSTKAENKI the IC50 [4] was 1.84 µM.
YIHKLILSV showed an IC50 [3] of 1.15 µM.
With LTIIYIHLF the IC50 [4] was 69.5 µM and the IC50 [1] was ≥ 100 µM.
DFVIIPHYTF was tested, and the IC50 [4] was 0.289 µM.
For DSCVPNTNEY, the IC50 [1] was ≥ 100 µM.
In the case of YIYIDTIKFI, the IC50 [3] is reported as 53.1 µM.
Work on YIYNQIIWKI yielded an IC50 [3] of 1.95 µM.
Work on FTYDSEEYY yielded an IC50 [1] of 0.136 µM.
In the case of NDVPIKMEYF, the IC50 [6] is reported as ≥ 100 µM.
In the case of LICGVSPYK, the IC50 [2] is reported as 0.419 µM.
SYFTYDSEEY was tested, and the IC50 [4] was 22.3 µM.
For VLLLSAFEFT, the IC50 [3] was ≥ 100 µM.
YYRSSRGECI showed an IC50 [4] of 0.175 µM.
In the case of PFHKKFISFF, the IC50 [4] is reported as 0.0356 µM.
Work on FLQYHFKEL yielded an IC50 [3] of 14.6 µM.
For SIEIVERSNY, the IC50 [1] was 12.1 µM.
ITSDHLRQM was tested, and the IC50 [5] was ≥ 183 µM.
TSSLIKQNKY showed an IC50 [1] of 37.1 µM.
Sequence RASHTTPVL has an IC50 [5] of 0.258 µM.
For DMKNYGTNLF, the IC50 [4] was 5.3 µM.
Sequence NYKLGVQYFF has an IC50 [4] of 26.3 µM.
For KPEKYGNTTA, the IC50 [5] was ≥ 836 µM.
Work on FEWHTLSKEY yielded an IC50 [6] of 19.1 µM.
KVKDSWITL was tested, and the IC50 [3] was 4.01 µM and the IC50 [5] was 0.458 µM.
For NSYKEWISKK, the IC50 [2] was 7.37 µM.
Sequence KLKYVTESLK has an IC50 [2] of 3.34 µM.
For RLSHTDIHK, the IC50 [2] was 1.74 µM.
Work on FIPSHNSFI yielded an IC50 [3] of 31 µM.
IFHHLIYVL showed an IC50 [4] of 9.59 µM.
In the case of TLNDEYIVSY, the IC50 [1] is reported as ≥ 213 µM and the IC50 [2] is reported as ≥ 304 µM.
With YVGDNINNV the IC50 [3] was 1.82 µM.
YIFFNNENSI showed an IC50 [3] of 2.83 µM.
With DTDSNHTPSN the IC50 [1] was 5.88 µM.
MIRIKKKLIL was tested, and the IC50 [5] was ≥ 100 µM.
IFFNNENSI was tested, and the IC50 [4] was 0.0569 µM.
In the case of KYLFIPSHN, the IC50 [4] is reported as 6.12 µM.
LPLKIENREY was tested, and the IC50 [5] was ≥ 100 µM.
With SYRYDISEEI the IC50 [4] was 0.363 µM.
DVSTLNDEY was tested, and the IC50 [1] was 52.2 µM.
In the case of FPCSLYKDEI, the IC50 [5] is reported as ≥ 100 µM.
With SILPDINKSK the IC50 [2] was 12.7 µM.
For NDNNFAECY, the IC50 [6] was ≥ 100 µM.
With NPEDRNSNTL the IC50 [5] was 2.7 µM.
With FNDVPIKMEY the IC50 [1] was 0.498 µM.
In the case of LPSAKNNCEY, the IC50 [5] is reported as ≥ 100 µM.
Work on SPLNLQENEM yielded an IC50 [5] of 22.4 µM.
Work on FLPTGAFKA yielded an IC50 [3] of 1.39 µM.
For RYNLYDKKL, the IC50 [4] was 0.172 µM.
Sequence STEEEKDDIK has an IC50 [1] of 6.83 µM.
For NTNGIRYHY, the IC50 [1] was 4.38 µM.
With STDPHTNSNN the IC50 [1] was ≥ 100 µM.
In the case of LSDTLQLHED, the IC50 [1] is reported as ≥ 100 µM.
LQKHGFHTM was tested, and the IC50 [5] was ≥ 100 µM.
With NSIYHKSSTY the IC50 [1] was ≥ 100 µM and the IC50 [2] was ≥ 101 µM.
With PVATGNQYLK the IC50 [2] was ≥ 328 µM.
In the case of HLDFVIIPHY, the IC50 [1] is reported as ≥ 118 µM.
Sequence SAFLPTGAFK has an IC50 [2] of 0.345 µM.
With GEEKRASHTT the IC50 [6] was 10 µM.
For KPECVCKENL, the IC50 [5] was ≥ 206 µM.
With LPIKSTEEEK the IC50 [5] was ≥ 100 µM.
GEEDETHIY was tested, and the IC50 [1] was ≥ 261 µM.
With FLDYYKHLSY the IC50 [1] was 0.646 µM and the IC50 [2] was ≥ 100 µM.
KEYNNSEITI showed an IC50 [6] of 11 µM.
With IKKKLILTII the IC50 [5] was 44.1 µM.
In the case of VQYFFLRPYI, the IC50 [3] is reported as ≥ 100 µM and the IC50 [6] is reported as ≥ 100 µM.
NEYSLFITS was tested, and the IC50 [6] was ≥ 100 µM.
For KIFTFIENK, the IC50 [2] was 0.467 µM.
With ASDQPKQYEQ the IC50 [1] was ≥ 126 µM.
MDMKNYGTNL was tested, and the IC50 [5] was ≥ 100 µM.
Sequence FQYNDDASI has an IC50 [3] of 0.275 µM.
In the case of YMGNPWTEYM, the IC50 [3] is reported as 21.4 µM.
With HIYVQKKVK the IC50 [2] was 0.897 µM.
ATCKYGFNK gave an IC50 [2] of 4.75 µM.
In the case of SECDIGLIY, the IC50 [6] is reported as ≥ 100 µM and the IC50 [1] is reported as ≥ 100 µM.
In the case of FVCSNRDFLK, the IC50 [2] is reported as ≥ 100 µM.
With VENNFPCSLY the IC50 [6] was 6.02 µM and the IC50 [2] was ≥ 85.4 µM.
With NSILIKPEKY the IC50 [1] was ≥ 109 µM.
